Test results published in patent publication US20030236190A1 (published 2003).
Read-outs that look alike come from different tables or passages of the source. Positions of bridges follow the written chain, without caps; N, C: chain ends. No end group written: not given here.

Columns and labels:
[1] = biological target: human IGF-1R on FDCP-2 cells (human, UniProt P08069 31-1367); assay: cell-based or functional assay
[2] = biological target: T1, Human insulin receptor (HIR), purified from transfected cells after solubilization with Triton X-100 (human, UniProt P06213 28-1382, limits assumed); assay: competition with 125I-insulin for solubilised HIR, PEG precipitation; Kd calculated from the competition curve
T1 construct: Detergent-solubilised receptor

[3] = biological target: insulin receptor (IR) on mouse free fat cells (mouse, UniProt P15208 28-1372); assay: cell-based or functional assay
Sequence of insulin receptor (IR) on mouse free fat cells (P15208 28-1372): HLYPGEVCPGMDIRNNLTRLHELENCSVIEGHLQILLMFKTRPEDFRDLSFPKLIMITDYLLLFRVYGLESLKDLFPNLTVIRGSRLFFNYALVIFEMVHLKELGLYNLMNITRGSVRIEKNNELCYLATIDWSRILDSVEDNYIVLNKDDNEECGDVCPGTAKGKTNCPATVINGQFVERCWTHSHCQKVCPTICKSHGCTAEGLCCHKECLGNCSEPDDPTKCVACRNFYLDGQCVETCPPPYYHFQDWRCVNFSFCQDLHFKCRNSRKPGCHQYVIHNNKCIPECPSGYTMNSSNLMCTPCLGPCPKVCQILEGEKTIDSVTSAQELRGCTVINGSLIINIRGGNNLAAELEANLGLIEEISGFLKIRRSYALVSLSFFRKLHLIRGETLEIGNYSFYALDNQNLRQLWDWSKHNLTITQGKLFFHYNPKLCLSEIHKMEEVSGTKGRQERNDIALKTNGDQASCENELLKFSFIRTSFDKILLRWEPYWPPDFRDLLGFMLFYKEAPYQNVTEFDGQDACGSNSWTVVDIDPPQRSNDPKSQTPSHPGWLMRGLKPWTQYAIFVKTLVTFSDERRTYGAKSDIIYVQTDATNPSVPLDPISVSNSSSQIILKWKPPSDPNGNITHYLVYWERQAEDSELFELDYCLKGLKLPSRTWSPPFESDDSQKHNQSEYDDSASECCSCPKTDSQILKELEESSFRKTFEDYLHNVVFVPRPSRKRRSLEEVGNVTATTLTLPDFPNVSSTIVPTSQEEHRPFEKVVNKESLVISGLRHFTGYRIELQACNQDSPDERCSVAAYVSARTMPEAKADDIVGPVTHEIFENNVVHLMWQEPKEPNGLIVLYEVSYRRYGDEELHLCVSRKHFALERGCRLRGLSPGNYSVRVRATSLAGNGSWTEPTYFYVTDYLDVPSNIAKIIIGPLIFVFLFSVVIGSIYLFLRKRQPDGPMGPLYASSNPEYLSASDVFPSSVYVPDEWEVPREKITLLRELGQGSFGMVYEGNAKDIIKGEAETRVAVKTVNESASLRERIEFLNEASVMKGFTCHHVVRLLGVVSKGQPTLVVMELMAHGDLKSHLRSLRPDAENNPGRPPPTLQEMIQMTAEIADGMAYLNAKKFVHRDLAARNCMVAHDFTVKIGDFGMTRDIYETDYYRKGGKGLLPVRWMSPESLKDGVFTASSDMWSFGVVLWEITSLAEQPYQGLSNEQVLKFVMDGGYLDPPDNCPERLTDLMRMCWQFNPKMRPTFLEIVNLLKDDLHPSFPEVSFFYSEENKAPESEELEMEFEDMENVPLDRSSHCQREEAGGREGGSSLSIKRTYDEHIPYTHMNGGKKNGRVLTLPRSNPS

[4] = biological target: T2, human insulin receptor (HIR) (human, UniProt P06213 28-1382, limits assumed); assay: 125I-insulin competition, solubilised HIR
[5] = biological target: human IGF-1 receptor (HIGF-1R) (human, UniProt P08069 31-1367); assay: 125I-IGF-1 competition, solubilised HIGF-1R
[6] = biological target: T2, human insulin receptor (HIR); assay: Kd(HIR), insulin competition
[7] = biological target: T1, Human insulin receptor (HIR), purified …; assay: competition with 125I-insulin for solubilised HIR, PEG precipitation; Kd calculated from the competition curve; remark: listed apart in the source
[8] = biological target: human IGF-1R on FDCP-2 cells (human, UniProt P08069 31-1367); assay: cell-based or functional assay; remark: listed apart in the source
[9] = biological target: T3, recombinant human IGF-1R (rhIGF-1R) (human, UniProt P08069 31-935); assay: TR-FRET competition with b-20E2 for rhIGF-1R
T3 construct: extracellular domain; Coated on plates in the TRF assay and europium-labelled (LANCE) in the TR-FRET assays; also called rhIGE-1R; Eu3+-rhIGF-1R

[10] = biological target: T3, recombinant human IGF-1R (rhIGF-1R); assay: TR-FRET competition with b-20E2 for Eu3+-rhIGF-1R
[11] = biological target: T4, soluble human insulin receptor-immunoglobulin heavy chain chimera (sIR-Fc) (human, UniProt P06213 28-956, limits assumed); assay: fluorescence polarization competition with FITC-RP9 for sIR-Fc
T4 construct: extracellular domain; also called sIR-Ec; not shown: immunoglobulin heavy chain constant domains

[12] = biological target: T3, recombinant human IGF-1R (rhIGF-1R); assay: heterogeneous TRF (DELFIA) competition with b-rhIGF-1 for plate-coated rhIGF-1R
Experimental: (§1) The plates were incubated for 2 hr at RT.

[13] = biological target: T3, recombinant human IGF-1R (rhIGF-1R); assay: column 'nM Ki app Kd' of Table 15 (IGF-1R summary); values match the TRF competition with b-rhIGF-1 on rhIGF-1R of Table 20
Experimental: as §1

[14] = biological target: T3, recombinant human IGF-1R (rhIGF-1R); assay: ratio of the IC50 at rhIGF-1R (TR-FRET) to the IC50 at sIR-Fc (FP); higher values indicate higher affinity for IR than IGF-1R
[15] = biological target: T1, Human insulin receptor (HIR), purified …; assay: competition with 125I-insulin for solubilised HIR, PEG precipitation; Kd calculated from the competition curve; remark: listed apart in the source
[16] = biological target: T2, human insulin receptor (HIR); assay: cell-based or functional assay
[17] = biological target: T5, soluble HIR ectodomain (sIR) (human, UniProt P06213-2 28-944, limits assumed); assay: FP competition vs FITC-RP9, sIR
T5 construct: extracellular domain
Excerpt: Fluorescence polarization assays (FP) were used for peptide competition studies.

[18] = biological target: T6, soluble human insulin receptor-immunoglobulin heavy chain chimera (sIR-Fc) (human, UniProt P06213 28-956, limits assumed, Eu3+ label (LANCE) in the TR-FRET assays); assay: TR-FRET competition vs b-S175, sIR-Fc
T6 construct: extracellular domain; construct of Bass et al., 1996; also called HIR-immunoglobulin heavy chain chimera; not shown: immunoglobulin heavy chain constant domains
Experimental: The TR-FRET assays were performed in a 384-well white microplate with a final volume of 30 μl.

WLDQERAWLWCEISGRGCLS (disulfide 11-18 (inferred)) [D815]
IGF-1 agonist (proliferation) assay, FDCP-2 cells; ED50 [1]: ~2 µM

GIISQSCPESFYDWFAGQVSDPWWCW [G33]
IGF-1 agonist (proliferation) assay, FDCP-2 cells; ED50 [1]: ~10 µM

B1: S415 (peptide)
chain: ESFYDWFERQLGK
modifications: not fully specified (residue 13, C-terminus); also: dimer, two chains joined C-terminus to C-terminus through linker 23
Kd [2]: 100 nM

B2: 537 (peptide)
peptide: MADYKDDDDKGSLDESFYDWFERQLGKKGGSGGSWLDQEWAWVQCEVYGRGCPSAAAGAPVPYPDPLEPRPG
notes: recombinant dimer with tags at both ends; also called RP9-6aa-D8
FFC Pot. [3]: 10 nM | Kd [4]: 0.092 nM | Kd [5]: 980 nM

B3: 435 (other, not shown: large carriers; small tags and cut ends)
chain: NNNNLGIEGRISEFIEGRAQPAMAFHENFYDWFVRQVSGGSFHENFYDWFVRQVSGGSFHENFYDWFVRQVSAAAGAPVPYPDPLEPRAA
notes: MBP fusion
Kd [6]: 2000 nM

B4: S374 (peptide)
peptide: XGSLDESFYDWFERQLGKK
chain: XGSLDESFYDWFERQLGKK
modifications: not fully specified; the two chains are joined N-terminus to N-terminus through chemical linker 17 of Table 3 (Table 7 prints an N-terminal Ald group on each chain)
notes: Synthetic RP9 homodimer (Site 1-Site 1, N-N)
Kd [7]: 180 nM

GSLDESFYDWFERQLG (also called RP9 minus terminal lysines) [RP9]
IC50 Antag. [8]: 900 nM | Ki/ED50 [8]: 0.5 | Max Action [8]: < 10% | IC50 [9]: 33 nM | IC50 [10]: 39.3 nM | IC50 [11]: 24 nM | IC50 [12]: 417 nM | Ki [13]: 417 nM | Binding Ratio IGF-1R/IR [14]: 1.4

B5: 436 (other, not shown: large carriers; small tags and cut ends)
chain: NNNNLGIEGRISEFIEGRAQPAMAFHENFYDWFVRQVSGGSGGSGGSFHENFYDWFVRQVSAAAGAPVPYPDPLEPRAA
notes: MBP fusion
Kd [6]: 410 nM

DYKDFYDAIDQLVRGSARAGGTRD (also called 20E2 (D118))
IC50 [9]: 100 nM | IC50 [10]: 104 nM | IC50 [11]: 51 nM | Binding Ratio IGF-1R/IR [14]: 1.9

GSLDESFYDWFERQL (Synthetic truncated RP9 monomer peptide) [S395]
Kd [15]: 91 nM | Kd [2]: 91 nM

B6: D815-6aa-RP9 (peptide)
peptide: WLDQERAWLWCEISGRGCLSGGSGGSGSLDESFYDWFERQLGKK
notes: Site 2-Site 1 dimer peptide, recombinant; also called D815-RP9 (6 aa linker); D815-6-RP9
ED50 Growth [8]: 50 nM | IC50 Antag. [8]: > 500 nM | Ki/ED50 [8]: 0.8 | Max Action [8]: > 50% | IC50 [12]: 35.7 nM | Ki [13]: 36 nM

B7: 539 (peptide)
peptide: MADYKDDDDKWLDQEWAWVQCEVYGRGCPSGGSGGSGSLDESFYDWFERQLGKKAAAGAPVPYPDPLEPRPG
notes: recombinant dimer with tags at both ends; also called D8-6aa-RP9
Kinase Pot. [16]: 110 nM | FFC Pot. [3]: 10 nM | Kd [4]: 0.53 nM

B8: 535 (peptide)
peptide: MADYKDDDDKGSLDESFYDWFERQLGKKGGSGGSGGSGGSGSLDESFYDWFERQLGKKAAAGAPVPYPDPLEPRPG
Kinase Pot. [16]: 1000 nM | FFC Pot. [3]: 2 nM

DYKDFYDAIDQLVRGSARAGGTRD
IGF-1 agonist (proliferation) assay, FDCP-2 cells; ED50 [1]: > 10 µM

B9: D815-12aa-RP9 (peptide)
peptide: WLDQERAWLWCEISGRGCLSGGSGGSGGSGGSGSLDESFYDWFERQLGKK
modifications: not fully specified (bridges); cysteine pairing not given here
notes: Site 2-Site 1 dimer peptide, recombinant; also called D815-RP9 (12 aa linker); D815-12-RP9
ED50 Growth [8]: 10000 nM | Ki/ED50 [8]: 0.0003 | Max Action [8]: 100 | IC50 [12]: 3.22 nM | Ki [13]: 3 nM

B10: 464 (other, not shown: large carriers; small tags and cut ends)
chain: NNNNLGIEGRISEFIEGRDYKDDDDKFHENFYDWFVRQVSAAGAPVPYPDPLEPRAA
notes: MBP fusion
Kd [6]: 39 nM

CWARPCGDAANFYDWFVQQAS (also called C1 (D112)) [C1]
IC50 [9]: 10 nM | IC50 [10]: 0.88 nM | Binding Ratio IGF-1R/IR [14]: 0.19

WLDQERAWLWCEISGRGCLS (disulfide 11-18 (inferred), Recombinant form) [recombinant peptide surrogate D815 (rD815)]
ED50 Growth [8]: 500 nM | Max Action [8]: > 50% | IC50 [12]: 4080 nM | Ki [13]: 4080 nM

EEDWLQRNANFYDWFVAELX (C-terminal Lig'; copies joined C-C by chemical linker 9, also called (EE-short-S175-Lig)2-9) [S380]
IC50 [17]: 0.5 nM | IC50 [18]: 10 nM

B11: 437 (other, not shown: large carriers; small tags and cut ends)
chain: NNNNLGIEGRISEFIEGRAQPAMAFHENFYDWFVRQVSAAAGAPVPYPDPLEPRAA
notes: MBP fusion
Kd [6]: 8300 nM

B12: 463 (other, not shown: large carriers; small tags and cut ends)
chain: NNNNLGIEGRISEFIEGRAQPAMAFHENFYDWFVRQVSGGSFHENFYDWFVRQVSAAAGAPVPYPDPLEPRAA
notes: MBP fusion
Kd [6]: 960 nM

B13: 521 (peptide)
peptide: MADYKDDDDKGSLDESFYDWFERQLGKKGGSGGSGSLDESFYDWFERQLGKKAAAGAPVPYPDPLEPRPG
notes: recombinant dimer with tags at both ends (FLAG, E-Tag); also called RP9-6aa-RP9
Kinase Pot. [16]: 1400 nM | FFC Pot. [3]: 3 nM | Kd [4]: 25 nM

GSLDESFYDWFERQLG (also called RP9 minus terminal lysines) [S386]
Kd [15]: 320 nM

ESFYDWFERQL (Synthetic truncated RP9 monomer peptide) [S399]
Kd [15]: 91 nM | Kd [2]: 91 nM

GIISQSCPESFYDWFAGQVSDPWWCW (Recombinant form) [recombinant peptide surrogate G33 (rG33)]
ED50 Growth [8]: 500 nM | Ki/ED50 [8]: 2.9 | Max Action [8]: > 50 | IC50 [12]: 1450 nM | Ki [13]: 1450 nM

B14: 538 (peptide)
peptide: MADYKDDDDKGSLDESFYDWFERQLGKKGGSGGSGGSGGSWLDQEWAWVQCEVYGRGCPSAAAGAPVPYPDPLEPRPG
notes: recombinant dimer with tags at both ends; also called RP9-12aa-D8
FFC Pot. [3]: 10 nM | Kd [4]: 0.08 nM | Kd [5]: 710 nM

GSLDESFYDWFERQ (Synthetic truncated RP9 monomer peptide) [S394]
Kd [15]: 81 nM | Kd [2]: 81 nM

B15: S371 (peptide)
peptide: GSLDESFYDWFERQLGKK
notes: Synthetic RP9 monomer peptide; also called RP9; S371 (RP9)
Kd [7]: 630 nM | Kd [2]: 630 nM

ESFYDWFERQ (Synthetic truncated RP9 monomer peptide) [S400]
Kd [15]: 630 nM | Kd [2]: 630 nM

B16: D815-6aa-G33 (peptide)
peptide: WLDQERAWLWCEISGRGCLSGGSGGSGIISQSCPESFYDWFAGQVSDPWWCW
notes: Site 2-Site 1 dimer peptide, recombinant; also called D815-G33 (6 aa linker); D815-6-G33
Max Action [8]: < 10% | IC50 [12]: 624 nM | Ki [13]: 624 nM
